As a reminder, the Kd is the concentration at which binding is half-saturated. The low end stands for higher affinity, the high end for lower affinity.

1 molecule from PMC5298014, “Site‐Specific Immobilization of the Peptidoglycan Synthase PBP1B on a Surface Plasmon Resonance Chip Surface” (Chembiochem, 2016) can be followed below.

Values joined by “and” are separate entries in the source; they are usually repeats but may differ in a detail not shown here. Identical values can stand only once.

For the test, the target named is T1, LpoB(sol) (signal sequence and lipid anchor of LpoB replaced by an oligohistidine tag).
T1 construct: also called His-LpoB(sol); source: E. coli BL21(DE3) with pET28LpoB, purified (HisTrap, thrombin, HiTrap Q flow-through, Superdex 200)
Description: SPR; IBIS-MX96; PBP1B Gly55AzF immobilised through its azide on a SensEye P-NH2 sensor coated with sulfo-dibenzylcyclooctyne-NHS ester, blocked with azidoethanol; LpoB injected at different concentrations; running buffer 10 mM Tris/maleate pH 7.5, 150 mM NaCl, 0.05 % Triton X-100; KD from maximum RU against concentration, one-site saturation. Conditions: both partners purified. In general terms: In SPR one partner is held on a chip, and binding of the other changes the refractive index at the surface.

B1: PBP1B Gly55AzF (N-terminal His6-tagged PBP1Bγ with p-azidophenylalanine in place of Gly55) (enzyme)
chain: MPRKGKGKGKFRKPRGKRGWLWLLLKLAIVFAVLIAIYGVYLDQKIRSRIDGKVWQLPAAVYGRMVNLEPDMTISKNEMVKLLEATQYRQVSKMTRPGEFTVQANSIEMIRRPFDFPDSKEGQVRARLTFDGDHLATIVNMENNRQFGFFRLDPRLITMISSPNGEQRLFVPRSGFPDLLVDTLLATEDRHFYEHDGISLYSIGRAVLANLTAGRTVQGASTLTQQLVKNLFLSSERSYWRKANEAYMALIMDARYSKDRILELYMNEVYLGQSGDNEIRGFPLASLYYFGRPVEELSLDQQALLVGMVKGASIYNPWRNPKLALERRNLVLRLLQQQQIIDQELYDMLSARPLGVQPRGGVISPQPAFMQLVRQELQAKLGDKVKDLSGVKIFTTFDSVAQDAAEKAAVEGIPALKKQRKLSDLETAIVVVDRFSGEVRAMVGGSEPQFAGYNRAMQARRSIGSLAKPATYLTALSQPKIYRLNTWIADAPIALRQPNGQVWSPQNDDRRYSESGRVMLVDALTRSMNVPTVNLGMALGLPAVTETWIKLGVPKDQLHPVPAMLLGALNLTPIEVAQAFQTIASGGNRAPLSALRSVIAEDGKVLYQSFPQAERAVPAQAAYLTLWTMQQVVQRGTGRQLGAKYPNLHLAGKTGTTNNNVDTWFAGIDGSTVTITWVGRDNNQPTKLYGASGAMSIYQRYLANQTPTPLNLVPPEDIADMGVDYDGNFVCSGGMRILPVWTSDPQSLCQQSEMQQQPSGNPFDQSSQPQQQPQQQPAQQEQKDSDGVAGWIKDMFGSN
modifications: p-azidophenylalanine in place of Gly55; coupled through this azide to dibenzylcyclooctyne on the chip surface
With B1, the Kd is 0.71 to 0.97 µM and 0.84 µM.
